For one test, the target named is RNAPII-CTD. Nature of the test: confocal fluorescence microscopy, AR AD partitioning into preassembled droplets. To be noted: 5 µM RNAPII-CTD, 50 mM NaCl, 10% ficoll, 1 µM AR AD; parent: est. 70; read off a plot.
A further test has as its target MED1-IDR. The description is as above. As to conditions: 15 µM MED1-IDR, 20 mM NaCl, 10% ficoll, 1 µM AR AD; parent: est. 97; read off a plot.

One substance from publication PMC10716049 can be followed below.

Consider AR AD WT* 22YtoS, for which the response in the test with RNAPII-CTD is 25 arb.u; with MED1-IDR, 80 arb.u.
